This test addresses T1, Hsp72 C-terminal tracer (Fam-…) (human).
T1 chain: GSGPTIEEVD
Description: fluorescence polarisation. As to conditions: remark: other sources report otherwise.

A word on the Kd: it is a measure of binding affinity in units of concentration. Low values mean a tighter complex, high ones a looser complex.

B1: Human FKBP51 (51-kDa FK506-binding protein), Q13451 1-457 (natural protein)
chain: MTTDEGAKNNEESPTATVAEQGEDITSKKDRGVLKIVKRVGNGEETPMIGDKVYVHYKGKLSNGKKFDSSHDRNEPFVFSLGKGQVIKAWDIGVATMKKGEICHLLCKPEYAYGSAGSLPKIPSNATLFFEIELLDFKGEDLFEDGGIIRRTKRKGEGYSNPNEGATVEIHLEGRCGGRMFDCRDVAFTVGEGEDHDIPIGIDKALEKMQREEQCILYLGPRYGFGEAGKPKFGIEPNAELIYEVTLKSFEKAKESWEMDTKEKLEQAAIVKEKGTVYFKGGKYMQAVIQYGKIVSWLEMEYGLSEKESKASESFLLAAFLNLAMCYLKLREYTKAVECCDKALGLDSANEKGLYRRGEAQLLMNEFESAKGDFEKVLEVNPQNKAARLQISMCQKKAKEHNERDRRIYANMFKKFAEQDAKEEANKAMGKKTSEGVTNEKGTDSQAMEEEKPEGHV
modifications: here or on the partner: 5-carboxyfluorescein (5-Fam) on the N-terminus via a 6-carbon spacer (aminohexanoic acid)
As for B1, the Kd is above 75 µM.

These data come from PMC4714923.
